{"source": "patent US6906179B2", "about": "“Antibody to SNIP1” (The General Hospital Corporation, priority 1999, dated 2005)", "molecules": {"B1": {"name": "TGF-β3: TGF-β isoform (protein, UniProt P10600 301-412, looked up)", "Transforming growth factor …": "ALDTNYCFRNLEENCCVRPLYIDFRQDLGWKWVHEPKGYYANFCSGPCPYLRSADTTHSTVLGLYNTLNPEASASPCCVPQDLEPLTILYYVGRTPKVEQLSNMVVKSCKCS"}, "B2": {"name": "GDNF: glial cell line-derived neurotrophic factor, member of the TGF-β superfamily (protein, UniProt P39905 78-211, looked up)", "Glial cell line-derived …": "SPDKQMAVLPRRERNRQAAAANPENSRGKGRRGQRGKNRGCVLTAIHLNVTDLGLGYETKEELIFRYCSGSCDAAETTYDKILKNLSRNRRLVSDKVGQACCRPIAFDDDLSFLDDNLVYHILRKHSAKRCGCI"}, "B3": {"name": "BMP7: OP-1 (BMP7), bone morphogenetic protein, TGF-β family ligand (protein, UniProt P18075 293-431, looked up)", "Bone morphogenetic protein 7": "STGSKQRSQNRSKTPKNQEALRMANVAENSSSDQRQACKKHELYVSFRDLGWQDWIIAPEGYAAYYCEGECAFPLNSYMNATNHAIVQTLVHFINPETVPKPCCAPTQLNAISVLYFDDSSNVILKKYRNMVVRACGCH"}}, "key": {"[1]": {"tested_on": "nigral dopamine neurons", "details": "cited from earlier work"}, "[2]": {"tested_on": "SNIP-1 protein level", "experiment": "ALK3Q233D-induced degradation of SNIP-1 in transfected COS cells, Western blot", "format": "cell-based", "details": "COS cells transfected with Smad1, DPC4, antizyme and BMP type II and type I (ALK3) receptors, treated with BMP7 (not shown)", "excerpt": "The novel Smad1 interactor is a nuclear proteip (termed as Smad1 Nuclear Interactor Protein 1, SNIP-1, SEQ ID No. 3), with a carboxyterminal domain that is highly homologous to the aminoterminus of the nuclear inhibitor of protein phosphatase 1 (NIPP-1) (Wang & Lechleider, unpublished) (FIG. 31A & C). NIPP-1 (VanEynde et al., 1995) is known to be rapidly processed into smaller heat-stable intermediates, a process that may be mediated by proteasome (see Discussion in Jagiello et al., 1995). SNIP-1 is a strong interactor of Smad1, that also binds to both antizyme and HsN3 in the yeast two-hybrid assays (FIG. 311B).\nForty-eight hours after transfection, COS cells were lysed in an equal volume of lysis buffer (300 ul/plate), and the total protein concentration of each sample was measured. No major difference in protein concentration was detected among the lysates. The protein level of SNIP-1 in 100 ug of total protein lysate was determined by Western blot using anti-T7 monoclonal antibody. […] Such a decrease is dependent upon the coexpression of Smad1, DPC4 and antizyme, since replacing each of these three proteins with an unrelated protein (β galactosidase) abolishes such a decrease in ALK3Q233D transfected cells (FIG. 31D, top panel, lanes 9-14). […]"}, "[3]": {"tested_on": "rat sympathetic neurons", "experiment": "OP-1 induced dendritic growth of rat sympathetic neurons", "format": "cell-based", "details": "sympathetic neurons", "description": "If Smad1 and DPC4 signal through proteasome mediated proteolysis, proteasome inhibitors should block the signaling of BMPs. We thus directly tested the effects of the proteasome inhibitors on the signaling pathways of BMPs that signal via Smad1 activation. […] The EC50 for the inhibitory activity of lactacystin was ˜100 nM and maximal effects were obtained with 4-6 hour pretreatments (not shown).\nTo determine the time course of sensitivity to lactacystin with respect to the signaling pathway of OP-1, lactacystin was added to the media at various time points after the addition of OP-1 (FIG. 32, bottom panel B)."}, "[4]": {"tested_on": "HsN3 and Smad1 localization", "experiment": "Localization of HsN3 and Smad1 in transfected COS cells, confocal microscopy", "format": "cell-based", "excerpt": "Since the activation of BMP type I receptors, either by BMP ligands in the presence of the type II receptor, or by the presence of a point mutation (Q233D), can induce the translocation of Smad1 from the cytoplasm to the nucleus (Hoodless et al., 1996, Wang et al., unpublished data), we examined whether the intracellular localization of the Smad1 interactor HsN3 is also regulated by the constitutively activated BMP type I receptor ALK3Q233D. The localization of endogenous HsN3 in COS cells in the presence or absence of activated Smad1 was studied by immunocytochemistry and confocal microscopy (FIG. 28). In untransfected COS cells, weak signals from endogenous HsN3 were detected in both the cytoplasm and the nucleus, with a monoclonal anti-HsN3 antibody and a FITC-conjugated anti-mouse secondary antibody (FIG. 28A). […]\nTo directly study how BMPs regulate the localization of HsN3, COS cells were transfected with the wild type BMP type I receptor ALK3 the BMP type II receptor and Smad1. […] In cells not treated with BMP7, the endogenous HsN3 produced a weak signal in both the cytoplasm and the nucleus that was detected with a FITC conjugated secondary antibody (FIG. 28D1), while the expressed Smad1 also produced a signal located throughout the transfected cells that was detected by Rodamine conjugated secondary antibody (FIG. 28D2). […]"}}, "note": "Read-outs that look alike come from different tables or passages of the source.", "data": [{"molecule": "B1", "values": [{"measurement": "nigral cell death or atrophy", "setting": "[1]; similar dosing strategies", "value": "no effect"}]}, {"molecule": "B2", "values": [{"measurement": "nigral cell death and atrophy", "setting": "[1]; intracerebral administration for 4 weeks following lesioning", "value": "completely prevented nigral cell death and atrophy"}, {"measurement": "nigral cell death and atrophy", "setting": "[1]; single 10 μg injection at 1 week post-lesion", "value": "partial protective effect"}]}, {"molecule": "B3", "values": [{"measurement": "degradation of SNIP-1", "setting": "[2]", "value": "degradation of SNIP-1 has also been observed"}, {"measurement": "Smad1 localization upon OP-1 treatment", "setting": "[3]", "value": "rapid nuclear translocation of Smad1"}, {"measurement": "HsN3 signal", "setting": "[4]; 30 mins after BMP7 treatment (20 ng/ml)", "value": "only a nuclear HsN3 signal of increased intensity was detected"}, {"measurement": "endogenous HsN3 and overexpressed Smad1 localization", "setting": "[4]; 60 mins after BMP7 treatment (20 ng/ml)", "value": "accumulated in the nucleus"}]}]}
